Residue numbers refer to the chain shown, from its start.
T1: cynomolgus monkey CDH6 (on cells) (cynomolgus monkey, UniProt P55285 54-790 (human entry))
T1 construct: Expressed from pcDNA3.1-cynoCDH6; also called cynoCDH6
T1 sequence: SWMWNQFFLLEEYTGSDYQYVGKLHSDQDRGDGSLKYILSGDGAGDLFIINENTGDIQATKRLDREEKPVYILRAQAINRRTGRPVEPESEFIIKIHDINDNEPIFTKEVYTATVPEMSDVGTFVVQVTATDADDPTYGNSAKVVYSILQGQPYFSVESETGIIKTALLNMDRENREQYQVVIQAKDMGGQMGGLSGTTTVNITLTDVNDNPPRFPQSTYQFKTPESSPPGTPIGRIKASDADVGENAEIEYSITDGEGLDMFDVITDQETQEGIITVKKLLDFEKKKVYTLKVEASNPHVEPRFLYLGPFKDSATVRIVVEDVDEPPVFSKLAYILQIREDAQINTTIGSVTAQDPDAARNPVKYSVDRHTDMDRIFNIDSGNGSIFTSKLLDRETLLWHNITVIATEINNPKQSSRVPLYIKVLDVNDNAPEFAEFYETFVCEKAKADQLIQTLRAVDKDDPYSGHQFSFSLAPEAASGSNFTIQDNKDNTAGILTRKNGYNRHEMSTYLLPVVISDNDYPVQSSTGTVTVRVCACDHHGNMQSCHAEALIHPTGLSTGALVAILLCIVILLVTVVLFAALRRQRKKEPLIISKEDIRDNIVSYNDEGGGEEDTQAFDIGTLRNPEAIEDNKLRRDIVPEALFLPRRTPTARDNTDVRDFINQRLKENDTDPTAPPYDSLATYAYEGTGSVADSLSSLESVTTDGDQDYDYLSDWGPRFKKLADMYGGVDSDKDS

T2: EC3 deletion mutant of human CDH6 (human, UniProt P55285 54-790)
T2 construct: In p3×FLAG-CMV-9; also called EC3-deleted hCDH6
T2 sequence: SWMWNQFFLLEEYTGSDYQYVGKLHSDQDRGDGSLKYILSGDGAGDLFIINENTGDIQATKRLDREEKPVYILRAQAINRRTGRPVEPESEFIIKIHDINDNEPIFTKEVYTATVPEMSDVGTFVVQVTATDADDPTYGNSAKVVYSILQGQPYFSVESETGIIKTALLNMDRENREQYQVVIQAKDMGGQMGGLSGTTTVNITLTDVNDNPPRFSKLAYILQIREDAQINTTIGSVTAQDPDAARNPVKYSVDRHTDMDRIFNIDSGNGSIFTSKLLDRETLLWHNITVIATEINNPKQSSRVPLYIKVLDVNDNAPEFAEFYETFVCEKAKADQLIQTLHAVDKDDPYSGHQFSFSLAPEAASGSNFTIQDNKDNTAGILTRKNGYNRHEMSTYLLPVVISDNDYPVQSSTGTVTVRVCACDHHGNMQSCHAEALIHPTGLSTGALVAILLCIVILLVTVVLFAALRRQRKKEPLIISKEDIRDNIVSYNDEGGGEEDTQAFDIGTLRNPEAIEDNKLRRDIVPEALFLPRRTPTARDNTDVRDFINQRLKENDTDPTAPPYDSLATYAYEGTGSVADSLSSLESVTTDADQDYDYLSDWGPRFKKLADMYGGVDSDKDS

B1: rG019 antibody (antibody, V domains shown)
VH: QVQLQQSGAELVKPGSSVKISCKASGYTFTRNFMHWIKQQPGNGLEWIGWIYCGDGETEYNQKFNGKATLTADRSSSTAYMELSRLTSEDSAVYFCARGVYGGFAGGYFDFWGQGVMVTVSS
VL: DIQMTQSPSLLSASVGDRVTLNCKASQNIYKNLAWYQQKLGEGPKLLIYDANTLQTGIPSRFSGSGSGSDFTLTISSLQPEDVATYFCQQYYSGWAFGGVTNLELKRA
notes: Rat monoclonal purified from hybridoma; also called rat anti-CDH6 monoclonal antibody clone rG019
B2: rG055 antibody (antibody, V domains shown)
VH: EVQLQESGPGLVRPSQSLSLSCSVTDYSITSNYWGWIRRFPGNKMEWMGYITYSGYTSYNPSLQSRISITRDTSKNQFFLQLNSVTAEDTATYYCARSINHGGYSYVVDAWGPGASVTVSS
VL: DVQMTHSPSYLAASPGESVSISCKTSKNISNYLVWYQQKPGEAYKLLIYSGSTLQSGTPSRFSGSGSGTDFTLTIRSLEPEDFGLYFCQQYYEKPFTFGSGTKLEIKR
notes: Rat monoclonal purified from hybridoma; also called rat anti-CDH6 monoclonal antibody clone rG055
B3: rG056 antibody (antibody, V domains shown)
VH: EVQLQESGPGLVKPSQSLSLTCSVTDYSITTYFWGWIRKFPGNKMEWMGYMSYRGGTSYNPSLKSRISITRDTSKNQFFLQLNSVTTEDTATYYCARCPNYGGHSLVFDYWGQGVMVTVSS
VL: DVQMTQSPSSLAASPGESVSISCRATKSIGIYLAWYQQKPGKTFKLLIYSGSTLQSGTPSRFSGSGSGTDFTLTIRSLEPEDFGLYFCQQFYENPFTFGSGTKLEIRR
notes: Rat monoclonal purified from hybridoma; also called rat anti-CDH6 monoclonal antibody clone rG056
B4: rG061 antibody (antibody, V domains shown)
VH: EVQLQESGPGLVKPSQSLSLTCSVTGYSITTYYWGWIRKFPGNKMEWMGYISYSGRTSYNPSLKSRMSITRDASKNQFFLQLNSVTTDDTATYYCARSPINHGGYWYFDFWGPGTMVTVSS
VL: B2 VL with H6Q, T25A, S26T, N28S, V34A, L46V, F87S, F96L
notes: Rat monoclonal purified from hybridoma; also called rat anti-CDH6 monoclonal antibody clone rG061

Each binder was assayed against T1, cynomolgus monkey CDH6 (on cells) (assay: Cell-ELISA and flow cytometry screening of hybridoma supernatants on transfected cells).
Protocol: A coloring reaction was carried out with occasional stirring. Thereafter, 1 M HCl was added to the plate (100 μL/well) to terminate the coloring reaction, followed by measurement of the absorbance at 490 nm using a plate reader (ENVISION: PerkinElmer, Inc.).
The binding specificity to cynomolgus monkey CDH6 of an antibody produced from the human CDH6- and cynomolgus monkey CDH6-binding antibody-producing hybridomas that had been selected by Cell-ELISA in Example 1)-4 was further confirmed by flow cytometry. […] Thereafter, the cells were suspended by the addition of the culture supernatant from each hybridoma. The cells were left standing at 4° C. for 1 hour. The cells were washed twice with PBS supplemented with 5% FBS, and thereafter, the cells were suspended by the addition of Anti-Rat IgG FITC conjugate (Sigma-Aldrich Co. LLC) that had been 500-fold diluted with PBS supplemented with 5% FBS. The cells were left standing at 4° C. for 1 hour. The cells were washed twice with PBS supplemented with 5% FBS, and then re-suspended in PBS supplemented with 5% FBS and 2 μg/ml 7-aminoactinomycin D (Molecular Probes, Inc.), followed by detection using a flow cytometer (FC500; Beckman Coulter, Inc.). The data was analyzed using FlowJo (Tree Star, Inc.). After dead cells were removed from analysis by gating out 7-aminoactinomycin D-positive cells, a histogram of the FITC fluorescence intensity of live cells was generated.

Row | Binder | binding result
1 | B1 | binds
2 | B2 | binds
3 | B3 | binds
4 | B4 | binds

Each binder was assayed against T2, EC3 deletion mutant of human CDH6 (assay: flow cytometry; 293α cells transfected with EC3-deleted hCDH6 (open) vs untransfected control cells (shaded); anti-rat IgG-FITC).
Protocol: The cells were cultured overnight under conditions of 37° C. and 5% CO₂, and thereafter, a cell suspension was prepared. […] Thereafter, the cells were suspended by the addition of each of the 4 rat anti-CDH6 monoclonal antibodies (clone Nos: rG019, rG055, rG056 and rG061), which had been prepared in Example 1)-7, or rat IgG control (R&D Systems, Inc.) (final concentration: 20 nM). The cells were left standing at 4° C. for 1 hour. The cells were washed twice with PBS supplemented with 5% FBS, and then suspended by the addition of Anti-Rat IgG (whole molecule)-FITC antibody produced in rabbit (Sigma-Aldrich Co. LLC) that had been 50-fold diluted with PBS supplemented with 5% FBS. The cells were left standing at 4° C. for 1 hour. The cells were washed twice with PBS supplemented with 5% FBS, followed by detection using a flow cytometer (Canto II; BD Biosciences). The data was analyzed using FlowJo (Tree Star, Inc.). In the histograms of FIGS. 2-1 to 2-6, the abscissa depicts FITC fluorescence intensity indicating the amount of the antibody bound, and the ordinate depicts cell count. […] Fluorescence intensity is enhanced when the antibody binds to full-length hCDH6 or each EC domain deletion mutant on the surface of cells. The rat IgG control binds to none of the transfected cells.

Row | Binder | binding result
5 | B1 | no binding (tested: 20 nM (single concentration))
6 | B2 | no binding (tested: 20 nM (single concentration))
7 | B3 | no binding (tested: 20 nM (single concentration))
8 | B4 | no binding (tested: 20 nM (single concentration))
